The text below walks through data of publication PMC7804408.

pKd: −log10 of the molar value.

This test addresses trigger factor (TF) (E. coli) (UniProt P0A850). Kind of test: SPR; TF immobilised on a CM5 chip by amine coupling, analytes injected at 20 μL/min for 90 s; Biacore X, 22 °C; 10 mM HEPES pH 7.5, 150 mM NaCl, 3 mM EDTA, 0.005% P20; steady-state response against concentration, one-site Langmuir model; apparent Kd for ClpX. (SPR reads the build-up and loss of mass on a sensor chip optically.)

trigger factor (TF) (E. coli), sequence (P0A850 whole entry): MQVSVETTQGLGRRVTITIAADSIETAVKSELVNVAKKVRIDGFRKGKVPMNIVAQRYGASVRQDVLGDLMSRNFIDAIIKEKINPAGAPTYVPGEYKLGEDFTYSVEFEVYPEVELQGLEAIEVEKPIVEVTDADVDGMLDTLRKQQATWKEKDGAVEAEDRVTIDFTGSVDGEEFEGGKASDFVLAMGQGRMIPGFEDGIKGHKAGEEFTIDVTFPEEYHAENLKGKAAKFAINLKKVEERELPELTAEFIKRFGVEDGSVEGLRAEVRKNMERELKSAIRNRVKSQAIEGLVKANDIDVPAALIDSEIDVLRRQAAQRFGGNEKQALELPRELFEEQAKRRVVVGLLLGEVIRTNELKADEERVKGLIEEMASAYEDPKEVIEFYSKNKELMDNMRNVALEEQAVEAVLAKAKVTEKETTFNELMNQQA

“ClpX∆ZBD (AAA+ domain of ClpX) (domain or fragment)”: the pKd is 5.70.

One may read the pKd as the Kd on a negative log10 scale, so that one unit is a factor of ten.
